{
  "source": "patent US9073976B2",
  "about": "“ND2 peptides and methods of treating neurological disease” (NoNO Inc., priority 2010, dated 2015)",
  "key": {"ND2 310-321": {"target": "T1, ND2 310-321 (Homo sapiens, UniProt P03891)", "T1 construct": "7; NVKMKWQFEHTK", "assay": "Dot blot of Src fragments probed with biotinylated ND2 310-321", "type": "binding", "conditions": "FIG. 5A", "method": "Src40-49-Tat indicate a fusion peptide in which the human HIV-1 tat protein transduction domain [[…]] […] (SEQ ID NO:10). […] The peptides were plated at a concentration of ˜5 uM."}, "[1]": {"target": "T2, binding of biotinylated Src40-49 to Tat-ND2 310-321 (Homo sapiens, UniProt P03891)", "T2 construct": "10; Tat-ND2 310-321; […]", "T2 sequence (P03891 other isoform, or with tags, fused parts or gaps)": "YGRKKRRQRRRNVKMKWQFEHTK", "assay": "Competition ELISA, binding of biotinylated Src40-49 to pre-coated Tat-ND2 310-321", "conditions": "FIG. 5E", "method": "Competition ELISAs were also performed. […] In a similar manner, ND2 constructs bearing amino acid sequences from the 300-321 region are able to act as inhibitors of the interaction between ND2 and Src."}, "[2]": {"target": "T3, ND2, Src, NMDAR subunits, and PSD95 in hippocampal neurons (Rattus norvegicus, UniProt P11662+Q9WUD9)", "T3 construct": "endogenous in cells; host or cells: primary hippocampal neurons from E17/E18 Wistar rats, 14 DIV", "assay": "Immunocytochemistry colocalization in 14DIV hippocampal neurons", "type": "cell-based", "conditions": "1 uM peptide for 1 h, day 14 neurons", "method": "A series of experiments was performed to examine the localization of ND2, Src, NMDAR subunits, and PSD95 in hippocampal neurons by immunocytochemistry in the presence of Tat, Tat-ND2 310-321, or Src 40-49-Tat. Briefly, hippocampal neurons were isolated from embryonic day #17/E18 Wistar rats, and cultured in neurobasal media containing coverslips with B27 and glutamax. Cells were then treated for 1 hr with luM peptide before fixing by standard methods. Proteins were visualized using specific antibodies and secondary antibodies coupled to fluorescent molecules. Colocalization of fluorescence was calculated by merging the images in Photoshop and calculating the % colocalized between pairs as the total colocalized fluorescence clusters divided by the total number of clusters (e.g., % colocalized ND2 with Src=(total colocalized)/(total ND2 clusters); % colocalized Src with ND2=(total colocalized)/(total Src clusters)).\nHippocampal neurons cultured on coverslips were treated with 1 uM of Src 40-49-Tat, Tat-ND2 310-321 or Tat for 1 h at the day 14. Then neurons were incubated in 4% paraformaldehyde and 4% sucrose in phosphate-buffered saline (PBS) for 10 minutes followed by 5 minutes […] at room temperature (RT). Cells were permeabilized with 0.25% Triton X-100 in PBS for 5 minutes and by treatment with 5% donkey serum in PBS for 30 minutes at RT. The cultures were incubated with a mixture of the primary antibodies, raised in various species, in 0.25% Triton X-100 PBS for 2 hours at RT, washed, and incubated for 1 hour at RT with a mixture of species-specific secondary antibodies all raised in donkey and conjugated to either Texas Red, or FITC fluorophores (1:200 dilution in 0.25% Triton X-100 PBS). The coverslips were washed with PBS and mounted using ProLong Gold antifade reagent (Invitrogen). Images were collected using a 60× pan-fluor objective on a Nikon Eclipse TE 200 microscope. The images were analyzed with PhotoShop 7 (Adobe, San Jose, Calif.). Brightness and contrast were adjusted, sharpened using the unsharpen mask tool, and the images were merged for color colocalization.\nFor quantification of the colocalization, the maximum intensities of the fluorophore channels were normalized and the background fluorescence of each channel seen in the dendrites was subtracted, the color images were merged. Two clusters in two different channels were considered colocalizing when at least 66% of the surface of one clusters in one of the two channels overlapped with a clusters in the other channel. For each combination of antibodies, three independent immunofluorescence experiments were done. Each measurement was taken from a 50-m-long dendritic segment (with an average width of 2 m). Colocalization was expressed as the percent of the total clusters analyzed."}, "[3]": {"target": "T4, NMDAR signaling complex in cultured hippocampal neurons (Rattus norvegicus, UniProt P11662+Q9WUD9)", "T4 construct": "endogenous in cells; host or cells: primary hippocampal neurons from E17/E18 Wistar rats, 14 DIV", "assay": "Co-immunoprecipitation from cultured hippocampal neurons", "type": "cell-based", "conditions": "IP anti-NR2B; 1 uM for 1 hour or 3 uM for 2 hours", "procedure": "We next examined the effect of Tat-ND2 310-321 and Src40-49-Tat on the association of proteins in the NMDAR signaling complex in cultured hippocampal neurons at 14DIV. Neurons were treated with Tat-ND2 310-321 or Src40-49 at 1 uM for 1 hour (FIG. 13A) or at 3 uM for 2 hours (FIG. 13B). Cell lysates were purified and immunoprecipitated with anti-NR2B (left) and then stained with anti NR2B, anti-PSD95, anti-Src and anti-ND2 antibodies.\nNMDAR and its associated proteins were prepared from cultured hippocampal (HP) neurons or rat brains. For in vitro competition experiments, two week HP neurons were collected after treatment with Src 40-49-Tat, Tat-ND2 310-321 or Tat peptides for 1 h at luM concentration or for 2 hours at 3 uM concentration then cells were quickly harvested and homogenized.\nLysates were incubated with Dynabeads protein G (Invitrogen) and selected antibodies for 30 minutes at room temperature. Isolated immunoprecipitates were resolved using SDS-PAGE and transferred to nitrocellulose membranes. The membranes were probed with selected detection antibodies, then stripped and reprobed with other detection antibodies."}, "[4]": {"target": "T5, NMDA Receptor complex in rat brains subjected to 3PVO (Rattus norvegicus, UniProt P11662+Q9WUD9)", "T5 construct": "from tissue; host or cells: rat brain cortex (ipsilateral and contralateral hemispheres) after 3PVO ischemia", "assay": "Co-immunoprecipitation from rat brains subjected to 3PVO stroke", "type": "in vivo", "conditions": "injection 1 hour post-surgery, harvest 2 hours post-surgery; compared with Tat-ND2 310-321", "procedure": "The status of these proteins was next examined in rat brains that had been subjected to a 3PVO stroke. After 3PVO ischemia, rodents were given either Tat-ND2 310-321 or saline via tail vein injection. At one hour post-surgery, the brains were quickly harvested and lysed. Following IP with anti NR2B antibodies, the membranes were incubated with anti phosphotyrosine antibodies, developed, and subsequently probed with anti Src, phosphorylated Src (pTys) and anti PSD95 antibodies. As an internal control, both the ipsilateral and contralateral hemispheres (I and C, respectively) were prepared.\nA second set of experiments was performed on animals subjected to 3PVO, modified such that the saline, Src 40-49-Tat or Tat-ND2 310-321 was administered by tail vein injection 1 hour post-surgery and the brains were harvested and lysed 2 hours post-surgery.\nFor in vivo experiments, one hour after 3PVO ischemia, rats were injected with indicated peptides or saline by intravenous tail vein. Two hours after surgery (one hour after administration of compounds), the selected cortex of the brain was quickly harvested and homogenized.\nLysates were incubated with Dynabeads protein G (Invitrogen) and selected antibodies for 30 minutes at room temperature. Isolated immunoprecipitates were resolved using SDS-PAGE and transferred to nitrocellulose membranes. […]"}, "rats subjected to 3PVO": {"test_system": "rats subjected to 3PVO", "assay": "Three pial vessel occlusion (3PVO) model of stroke, infarct volume", "type": "in vivo, rat", "conditions": "3 nmol/g intravenous one hour post-surgery; 24 hours after surgery; n=10", "procedure": "The efficacy of ND2 inhibitors in the treatment of stroke was examined using the three pial vessel occlusion (3PVO) model of stroke. This is a permanent model of stroke that creates small but consistent infarcts at 24 hours.\nMale Sprague Dawley rats (n=10 in each group) were surgically subjected to permanent occlusion of the pial vessels. One hour post-surgery, animals were given an intravenous injection of Saline, Tat-NR2B9c (Aarts et al, Science, 2002), Src 40-49-Tat or Tat-ND2 310-321 and allowed to further recover in their cages. 24 hours after surgery, brains were harvested, sliced and incubated with TTC to visualize the areas of infarction. The infarct volume of each animal was determined, as well as the average volumes for each group of ten.\nBoth peptides were myristoylated via an amide bond to the alpha-amino group of the N-terminal amino acid of the peptide.\nMale Sprague Dawley rats (n=10 in each group) weighing between 230 and 290 g were used for this study. Experiments were performed on fasted rats (Free overnight access to water but not food). For permanent three pial vessel occlusion (3PVO) was performed as described previously (Forder J et al., 2005, supra). In brief, rats were anesthetized with a 0.5 ml/kg intramuscular injection of ketamine (100 mg/kg), acepromazine (2 mg/kg), and xylazine (5 mg/kg), supplemented with one-third of the initial dose as required. An anal temperature probe was inserted, and the animal was placed on a heating pad maintained at 37° C. The skull was exposed via a midline incision and scraped free of tissue. Using a dissecting microscope and a pneumatic dental drill, a 6- to 8-mm cranial window was made over the right somatosensory cortex (2 mm caudal and 5 mm lateral to bregma) by drilling a rectangle through the skull and lifting off the piece of skull while keeping the dura intact. The 3 pial arteriolar middle cerebral artery branches around the barrel cortex were selected and electrically cauterized through the dura. After the cauterizations, the scalp was sutured. […]"}, "[5]": {"test_system": "association of Src and ND2", "conditions": "Liu et al. 2008; cited from earlier work"}, "NMDA currents": {"test_system": "NMDA currents", "conditions": "Liu et al. 2008; cited from earlier work"}, "[6]": {"test_system": "Formalin, CFA and peripheral nerve constriction pain models", "conditions": "Liu et al. 2008; cited from earlier work"}},
  "data": [
    {"sequence": "KPASADGHRGYGRKKRRQRRR [Src 40-49-Tat]", "values": [
      {"measurement": "binding of biotinylated ND2 310-321 (dot blot)", "setting": "ND2 310-321", "value": "bound ND2 310-321"},
      {"measurement": "inhibition of binding of biotinylated Src40-49 to Tat-ND2 310-321 (competition ELISA)", "setting": "[1]", "value": "inhibited"},
      {"measurement": "association (colocalization) between ND2 and NR2B", "setting": "[2]", "value": "do not significantly affect"},
      {"measurement": "colocalization between PSD95 and NR2B", "setting": "[2]", "value": "similarly disrupted"},
      {"measurement": "colocalization of ND2 with PSD95", "setting": "[2]", "value": "reduces the colocalization of ND2 with PSD95"},
      {"measurement": "colocalization of Src and ND2", "setting": "[2]", "value": "able to reduce the amount of colocalization of Src and ND2"},
      {"measurement": "colocalization between NR2B and Src", "setting": "[2]; FIG. 10", "value": "able to reduce the colocalization"},
      {"measurement": "colocalization between PSD95 and Src", "setting": "[2]; FIG. 11", "value": "able to reduce the colocalization"},
      {"measurement": "association of NR2B with Src", "setting": "[3]", "value": "reduces the association of NR2B with Src"},
      {"measurement": "uncoupling PSD95 and Src from the NMDA Receptor", "setting": "[4]", "value": "not nearly as effective"},
      {"measurement": "reducing infarct volumes (statistical effect)", "setting": "rats subjected to 3PVO", "value": "not statistically effective"},
      {"measurement": "association of Src and ND2 in neuronal lysates", "setting": "[5]", "value": "disrupt the association of Src and ND2 in neuronal lysates"},
      {"measurement": "NMDA currents", "setting": "NMDA currents", "value": "reduced NMDA currents"},
      {"measurement": "effect on inflammatory and neuropathic pain", "setting": "[6]", "value": "beneficial effect"}
    ]}
  ]
}
